The values below come from article PMC4673316.

The assay addresses ClpP1/P2 heptameric ring 3ClpP1 + 4ClpP2 (Synechococcus elongatus) (UniProt P54415). Briefly: native MS; nano-ESI Q-ToF, 200 mM ammonium acetate with 2 mM TEA (weakly denaturing).

With “ClpP1/P2 heptameric ring 3ClpP1 + 4ClpP2 (from UniProt P54415 1-197; O34125 1-240) (complex)”, the stoichiometry N is 2.

The term stoichiometry N denotes the number of molecules, sites or subunits per partner or assembly.
